This assay concerns the target T1, 100 aa-long synthetic MUC1 peptide (…)5.
T1 construct: also called 100-mer; vaccine 100-mer peptide
Put plainly: ELISA titration on coated 100-mer peptide, EC50 approximated. The text has this:
Heavy and light chains of antibodies reactive against MUC1 were generated from plasma of individuals vaccinated with a 100 aa-long synthetic MUC1 peptide (100-mer) representing the unglycosylated tumor associated MUC1 antigen (Kimura et al., 2013, Cancer Prev. Res. (Phila.), 6:18-26). Binding of monoclonal antibodies produced by combinatorial pairing of chains was characterized by ELISA using the vaccine 100-mer peptide consisting of the following sequence ([…])₅ (SEQ ID NO: 2). Briefly, 96-well high-binding ELISA plates were coated with 50 μl of the peptide diluted in carbonate buffer at 2 μg/ml. The wells were washed then blocked with 5% fat-free milk in phosphate-buffered saline (PBS). Antibodies were diluted in 5% milk in PBS with 0.1% TWEEN 20 (PBS-T) and then added to the peptide-coated, blocked wells and incubated at 37° C. for 2 hours, after which the wells were washed. Binding of antibody was probed with an anti-human IgG goat antibody conjugated to horseradish peroxidase (HRP), and signal was detected with 3,3′,5,5′-tetramethylbenzidine (TMB) substrate, which was neutralized with an acid, then the 450 nm absorbance was read. […] Additionally, the EC₅₀ of each antibody was approximated by ELISA titration (Table 1).

B1: M4 (antibody, human IgG1, lambda, V domains shown)
VH: QLQLQESGPGLVKPSETLSLTCTVSGGSISSSSYYWGWIRQPPGKGLEWIGSIYYSGSTHYNPSLKRRVTISEDTSKNQFSLKLSSVTAADTAVYYCARGVVEVRGNHYYYYHMDAWGKGTTVTVSS
VL: QSVLTQPPSVSGAPGQGVTISCTGSSSNIGAGYDVHWYQQLPGSAPKFFIYGSNNRPSGVPDRFSGSKSGTSASLAITGLQAEDEADYYCQSYDSSLSGSGVFGGGTKLTVLG
notes: Human IgG
Consider B1, for which the EC50 (in general, the concentration at which the effect is half-maximal) is 4 ng/mL.

B2: M9 (antibody, human IgG1, kappa, V domains shown)
VH: QVQLVESGGGLVKPGGSLRLSCAASGFTFSDYYMSWIRQAPGKGLEWVSYISSSGTTKYYADSVKGRFTISRDNAKNSLYLQMNSLRAEDTAVYYCVRENLGYCSGGSCYYYYYMDVWGKGTTVTVSS
VL: not shown
notes: Human IgG
With B2, the EC50 was found to be 4 ng/mL.

B3: M13 (antibody, human IgG1, kappa, V domains shown)
VH: QVQLVESGGGLVKPGGSLRLSCAASGFTFSDYYMSWIRQAPGKGLEWVSYISSSGTTKYYADSVKGRFTISRDNAKNSLYLQMNSLRAEDTAVYYCVRENIGYCTGGNCFYYYYMDVWGKGTTVTVSS
VL: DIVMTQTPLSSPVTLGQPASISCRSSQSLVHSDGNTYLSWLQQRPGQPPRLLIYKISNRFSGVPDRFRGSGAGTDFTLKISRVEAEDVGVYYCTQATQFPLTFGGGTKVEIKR
notes: Human IgG
Turning to B3, the concentration for a half-maximal effect (EC50) stood at 2 ng/mL.

B4: M11 (antibody, human IgG1, kappa, V domains shown)
VH: QVQLVESGGGLVKPGGSLRLSCAASGFTFSDYYMSWIRQAPGKGLEWVSYISSSGTTKYYADSVKGRFTISRDNAKNSLYLQMNSLRAEDTAVYYCVRENLGYCTGGNCFYYYYMDVWGKGTTVTVSS
VL: not shown
Regarding B4, the EC50 worked out at 10 ng/mL.

B5: M12 (antibody, human IgG1, kappa, V domains shown)
VH: QVQLVESGGGLVKPGGSLRLSCAASGFTFSDYYMSWIRQAPGKGLEWVSYISSSGTTKYYADSVKGRFTISRDNAKNSLYLQMNSLRAEDTAVYYCVRENIGYCTGGNCFYYYYMDVWGKGTTVTVSS
VL: not shown
notes: Human IgG
Molecule B5 displayed an EC50 of 2 ng/mL.

B6: M15 (antibody, human IgG1, kappa, V domains shown)
VH: QVQLVESGGGLVKPGGSLRLSCAASGFTFSDYYMSWIRQAPGKGLEWVSYISSSGTTKYYADSVKGRFTISRDNAKNSLYLQMNSLRAEDTAVYYCVRENLGYCSGGSCFYYYYMDVWGKGTTVTVSS
VL: not shown
notes: Human IgG
In turn, B6 had an EC50 of 5 ng/mL.

B7: M10 (antibody, human IgG1, kappa, V domains shown)
VH: QVQLVESGGGLVKPGGSLRLSCAASGFTFSDYYMSWIRQAPGKGLEWVSYISSSGTTKYYADSVKGRFTISRDNAKNSLYLQMNSLRAEDTAVYYCVRENLGYCSGGSCYYYYYMDVWGKGTTVTVSS
VL: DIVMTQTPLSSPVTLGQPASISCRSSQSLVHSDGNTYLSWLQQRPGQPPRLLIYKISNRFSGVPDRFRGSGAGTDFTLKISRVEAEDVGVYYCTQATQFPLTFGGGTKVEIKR
notes: Human IgG
B7 registered an EC50 of 4 ng/mL.

B8: M6 (antibody, human IgG1, kappa, V domains shown)
VH: EVQLVESGGGLVQPGGSLRLSCAASGFTVSSNYMSWVRQAPGKGLEWVSVIYSGGSTYYADSVKGRFTISRDNSKNTLYLQMNSLRAEDTAVYYCARGSTNTYYYDSSGHPWGQGTMVTVSS
VL: not shown
notes: Human IgG
In the case of B8, the response was half-maximal at 12 ng/mL (EC50).

B9: M5 (antibody, human IgG1, kappa, V domains shown)
VH: EVQLVESGGGLVQPGGSLRLSCAASGFTVSSNYMSWVRQAPGKGLEWVSVIYSGGSTYYADSVKGRFTISRDNSKNTLYLQMNSLRAEDTAVYYCARGSTNTYYYDSSGHPWGQGTMVTVSS
VL: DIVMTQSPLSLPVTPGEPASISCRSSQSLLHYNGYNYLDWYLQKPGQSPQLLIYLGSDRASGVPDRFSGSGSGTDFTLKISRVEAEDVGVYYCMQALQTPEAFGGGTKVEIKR
notes: Human IgG
In the case of B9, it took 100 ng/mL to reach a half-maximal effect (EC50). Compared with the last molecule, the EC50 is about 8.3-fold higher.
